Assay: Western blot, mature upper band, B3GnT2-/- HEK293T
Conditions: glycan lost; control: wild-type LRP6

Row | Protein | localisation_or_trafficking
1 | LRP6: N1039Q (protein) parent chain: MGAVLRSLLACSFCVLLRAAPLLLYANRRDLRLVDATNGKENATIVVGGLEDAAAVDFVFSHGLIYWSDVSEEAIKRTEFNKTESVQNVVVSGLLSPDGLACDWLGEKLYWTDSETNRIEVSNLDGSLRKVLFWQELDQPRAIALDPSSGFMYWTDWGEVPKIERAGMDGSSRFIIINSEIYWPNGLTLDYEEQKLYWADAKLNFIHKSNLDGTNRQAVVKGSLPHPFALTLFEDILYWTDWSTHSILACNKYTGEGLREIHSDIFSPMDIHAFSQQRQPNATNPCGIDNGGCSHLCLMSPVKPFYQCACPTGVKLLENGKTCKDGATELLLLARRTDLRRISLDTPDFTDIVLQLEDIRHAIAIDYDPVEGYIYWTDDEVRAIRRSFIDGSGSQFVVTAQIAHPDGIAVDWVARNLYWTDTGTDRIEVTRLNGTMRKILISEDLEEPRAIVLDPMVGYMYWTDWGEIPKIERAALDGSDRVVLVNTSLGWPNGLALDYDEGKIYWGDAKTDKIEVMNTDGTGRRVLVEDKIPHIFGFTLLGDYVYWTDWQRRSIERVHKRSAEREVIIDQLPDLMGLKATNVHRVIGSNPCAEENGGCSHLCLYRPQGLRCACPIGFELISDMKTCIVPEAFLLFSRRADIRRISLETNNNNVAIPLTGVKEASALDFDVTDNRIYWTDISLKTISRAFMNGSALEHVVEFGLDYPEGMAVDWLGKNLYWADTGTNRIEVSKLDGQHRQVLVWKDLDSPRALALDPAEGFMYWTEWGGKPKIDRAAMDGSERTTLVPNVGRANGLTIDYAKRRLYWTDLDTNLIESSNMLGLNREVIADDLPHPFGLTQYQDYIYWTDWSRRSIERANKTSGQNRTIIQGHLDYVMDILVFHSSRQSGWNECASSNGHCSHLCLAVPVGGFVCGCPAHYSLNADNRTCSAPTTFLLFSQKSAINRMVIDEQQSPDIILPIHSLRNVRAIDYDPLDKQLYWIDSRQNMIRKAQEDGSQGFTVVVSSVPSQNLEIQPYDLSIDIYSRYIYWTCEATNVINVTRLDGRSVGVVLKGEQDRPRAVVVNPEKGYMYFTNLQERSPKIERAALDGTEREVLFFSGLSKPIALALDSRLGKLFWADSDLRRIESSDLSGANRIVLEDSNILQPVGLTVFENWLYWIDKQQQMIEKIDMTGREGRTKVQARIAQLSDIHAVKELNLQEYRQHPCAQDNGGCSHICLVKGDGTTRCSCPMHLVLLQDELSCGEPPTCSPQQFTCFTGEIDCIPVAWRCDGFTECEDHSDELNCPVCSESQFQCASGQCIDGALRCNGDANCQDKSDEKNCEVLCLIDQFRCANGQCIGKHKKCDHNVDCSDKSDELDCYPTEEPAPQATNTVGSVIGVIVTIFVSGTVYFICQRMLCPRMKGDGETMTNDYVVHGPASVPLGYVPHPSSLSGSLPGMSRGKSMISSLSIMGGSSGPPYDRAHVTGASSSSSSSTKGTYFPAILNPPPSPATERSHYTMEFGYSSNSPSTHRSYSYRPYSYRHFAPPTTPCSTDVCDSDYAPSRRMTSVATAKGYTSDLNYDSEPVPPPPTPRSQYLSAEENYESCPPSPYTERSYSHHLYPPPPSPCTDSS | no change
2 | LRP6: N81Q (protein) parent chain: MGAVLRSLLACSFCVLLRAAPLLLYANRRDLRLVDATNGKENATIVVGGLEDAAAVDFVFSHGLIYWSDVSEEAIKRTEFNKTESVQNVVVSGLLSPDGLACDWLGEKLYWTDSETNRIEVSNLDGSLRKVLFWQELDQPRAIALDPSSGFMYWTDWGEVPKIERAGMDGSSRFIIINSEIYWPNGLTLDYEEQKLYWADAKLNFIHKSNLDGTNRQAVVKGSLPHPFALTLFEDILYWTDWSTHSILACNKYTGEGLREIHSDIFSPMDIHAFSQQRQPNATNPCGIDNGGCSHLCLMSPVKPFYQCACPTGVKLLENGKTCKDGATELLLLARRTDLRRISLDTPDFTDIVLQLEDIRHAIAIDYDPVEGYIYWTDDEVRAIRRSFIDGSGSQFVVTAQIAHPDGIAVDWVARNLYWTDTGTDRIEVTRLNGTMRKILISEDLEEPRAIVLDPMVGYMYWTDWGEIPKIERAALDGSDRVVLVNTSLGWPNGLALDYDEGKIYWGDAKTDKIEVMNTDGTGRRVLVEDKIPHIFGFTLLGDYVYWTDWQRRSIERVHKRSAEREVIIDQLPDLMGLKATNVHRVIGSNPCAEENGGCSHLCLYRPQGLRCACPIGFELISDMKTCIVPEAFLLFSRRADIRRISLETNNNNVAIPLTGVKEASALDFDVTDNRIYWTDISLKTISRAFMNGSALEHVVEFGLDYPEGMAVDWLGKNLYWADTGTNRIEVSKLDGQHRQVLVWKDLDSPRALALDPAEGFMYWTEWGGKPKIDRAAMDGSERTTLVPNVGRANGLTIDYAKRRLYWTDLDTNLIESSNMLGLNREVIADDLPHPFGLTQYQDYIYWTDWSRRSIERANKTSGQNRTIIQGHLDYVMDILVFHSSRQSGWNECASSNGHCSHLCLAVPVGGFVCGCPAHYSLNADNRTCSAPTTFLLFSQKSAINRMVIDEQQSPDIILPIHSLRNVRAIDYDPLDKQLYWIDSRQNMIRKAQEDGSQGFTVVVSSVPSQNLEIQPYDLSIDIYSRYIYWTCEATNVINVTRLDGRSVGVVLKGEQDRPRAVVVNPEKGYMYFTNLQERSPKIERAALDGTEREVLFFSGLSKPIALALDSRLGKLFWADSDLRRIESSDLSGANRIVLEDSNILQPVGLTVFENWLYWIDKQQQMIEKIDMTGREGRTKVQARIAQLSDIHAVKELNLQEYRQHPCAQDNGGCSHICLVKGDGTTRCSCPMHLVLLQDELSCGEPPTCSPQQFTCFTGEIDCIPVAWRCDGFTECEDHSDELNCPVCSESQFQCASGQCIDGALRCNGDANCQDKSDEKNCEVLCLIDQFRCANGQCIGKHKKCDHNVDCSDKSDELDCYPTEEPAPQATNTVGSVIGVIVTIFVSGTVYFICQRMLCPRMKGDGETMTNDYVVHGPASVPLGYVPHPSSLSGSLPGMSRGKSMISSLSIMGGSSGPPYDRAHVTGASSSSSSSTKGTYFPAILNPPPSPATERSHYTMEFGYSSNSPSTHRSYSYRPYSYRHFAPPTTPCSTDVCDSDYAPSRRMTSVATAKGYTSDLNYDSEPVPPPPTPRSQYLSAEENYESCPPSPYTERSYSHHLYPPPPSPCTDSS | abolishes
3 | LRP6: N692Q (protein) parent chain: MGAVLRSLLACSFCVLLRAAPLLLYANRRDLRLVDATNGKENATIVVGGLEDAAAVDFVFSHGLIYWSDVSEEAIKRTEFNKTESVQNVVVSGLLSPDGLACDWLGEKLYWTDSETNRIEVSNLDGSLRKVLFWQELDQPRAIALDPSSGFMYWTDWGEVPKIERAGMDGSSRFIIINSEIYWPNGLTLDYEEQKLYWADAKLNFIHKSNLDGTNRQAVVKGSLPHPFALTLFEDILYWTDWSTHSILACNKYTGEGLREIHSDIFSPMDIHAFSQQRQPNATNPCGIDNGGCSHLCLMSPVKPFYQCACPTGVKLLENGKTCKDGATELLLLARRTDLRRISLDTPDFTDIVLQLEDIRHAIAIDYDPVEGYIYWTDDEVRAIRRSFIDGSGSQFVVTAQIAHPDGIAVDWVARNLYWTDTGTDRIEVTRLNGTMRKILISEDLEEPRAIVLDPMVGYMYWTDWGEIPKIERAALDGSDRVVLVNTSLGWPNGLALDYDEGKIYWGDAKTDKIEVMNTDGTGRRVLVEDKIPHIFGFTLLGDYVYWTDWQRRSIERVHKRSAEREVIIDQLPDLMGLKATNVHRVIGSNPCAEENGGCSHLCLYRPQGLRCACPIGFELISDMKTCIVPEAFLLFSRRADIRRISLETNNNNVAIPLTGVKEASALDFDVTDNRIYWTDISLKTISRAFMNGSALEHVVEFGLDYPEGMAVDWLGKNLYWADTGTNRIEVSKLDGQHRQVLVWKDLDSPRALALDPAEGFMYWTEWGGKPKIDRAAMDGSERTTLVPNVGRANGLTIDYAKRRLYWTDLDTNLIESSNMLGLNREVIADDLPHPFGLTQYQDYIYWTDWSRRSIERANKTSGQNRTIIQGHLDYVMDILVFHSSRQSGWNECASSNGHCSHLCLAVPVGGFVCGCPAHYSLNADNRTCSAPTTFLLFSQKSAINRMVIDEQQSPDIILPIHSLRNVRAIDYDPLDKQLYWIDSRQNMIRKAQEDGSQGFTVVVSSVPSQNLEIQPYDLSIDIYSRYIYWTCEATNVINVTRLDGRSVGVVLKGEQDRPRAVVVNPEKGYMYFTNLQERSPKIERAALDGTEREVLFFSGLSKPIALALDSRLGKLFWADSDLRRIESSDLSGANRIVLEDSNILQPVGLTVFENWLYWIDKQQQMIEKIDMTGREGRTKVQARIAQLSDIHAVKELNLQEYRQHPCAQDNGGCSHICLVKGDGTTRCSCPMHLVLLQDELSCGEPPTCSPQQFTCFTGEIDCIPVAWRCDGFTECEDHSDELNCPVCSESQFQCASGQCIDGALRCNGDANCQDKSDEKNCEVLCLIDQFRCANGQCIGKHKKCDHNVDCSDKSDELDCYPTEEPAPQATNTVGSVIGVIVTIFVSGTVYFICQRMLCPRMKGDGETMTNDYVVHGPASVPLGYVPHPSSLSGSLPGMSRGKSMISSLSIMGGSSGPPYDRAHVTGASSSSSSSTKGTYFPAILNPPPSPATERSHYTMEFGYSSNSPSTHRSYSYRPYSYRHFAPPTTPCSTDVCDSDYAPSRRMTSVATAKGYTSDLNYDSEPVPPPPTPRSQYLSAEENYESCPPSPYTERSYSHHLYPPPPSPCTDSS | abolishes
4 | LRP6: N42Q (protein) parent chain: MGAVLRSLLACSFCVLLRAAPLLLYANRRDLRLVDATNGKENATIVVGGLEDAAAVDFVFSHGLIYWSDVSEEAIKRTEFNKTESVQNVVVSGLLSPDGLACDWLGEKLYWTDSETNRIEVSNLDGSLRKVLFWQELDQPRAIALDPSSGFMYWTDWGEVPKIERAGMDGSSRFIIINSEIYWPNGLTLDYEEQKLYWADAKLNFIHKSNLDGTNRQAVVKGSLPHPFALTLFEDILYWTDWSTHSILACNKYTGEGLREIHSDIFSPMDIHAFSQQRQPNATNPCGIDNGGCSHLCLMSPVKPFYQCACPTGVKLLENGKTCKDGATELLLLARRTDLRRISLDTPDFTDIVLQLEDIRHAIAIDYDPVEGYIYWTDDEVRAIRRSFIDGSGSQFVVTAQIAHPDGIAVDWVARNLYWTDTGTDRIEVTRLNGTMRKILISEDLEEPRAIVLDPMVGYMYWTDWGEIPKIERAALDGSDRVVLVNTSLGWPNGLALDYDEGKIYWGDAKTDKIEVMNTDGTGRRVLVEDKIPHIFGFTLLGDYVYWTDWQRRSIERVHKRSAEREVIIDQLPDLMGLKATNVHRVIGSNPCAEENGGCSHLCLYRPQGLRCACPIGFELISDMKTCIVPEAFLLFSRRADIRRISLETNNNNVAIPLTGVKEASALDFDVTDNRIYWTDISLKTISRAFMNGSALEHVVEFGLDYPEGMAVDWLGKNLYWADTGTNRIEVSKLDGQHRQVLVWKDLDSPRALALDPAEGFMYWTEWGGKPKIDRAAMDGSERTTLVPNVGRANGLTIDYAKRRLYWTDLDTNLIESSNMLGLNREVIADDLPHPFGLTQYQDYIYWTDWSRRSIERANKTSGQNRTIIQGHLDYVMDILVFHSSRQSGWNECASSNGHCSHLCLAVPVGGFVCGCPAHYSLNADNRTCSAPTTFLLFSQKSAINRMVIDEQQSPDIILPIHSLRNVRAIDYDPLDKQLYWIDSRQNMIRKAQEDGSQGFTVVVSSVPSQNLEIQPYDLSIDIYSRYIYWTCEATNVINVTRLDGRSVGVVLKGEQDRPRAVVVNPEKGYMYFTNLQERSPKIERAALDGTEREVLFFSGLSKPIALALDSRLGKLFWADSDLRRIESSDLSGANRIVLEDSNILQPVGLTVFENWLYWIDKQQQMIEKIDMTGREGRTKVQARIAQLSDIHAVKELNLQEYRQHPCAQDNGGCSHICLVKGDGTTRCSCPMHLVLLQDELSCGEPPTCSPQQFTCFTGEIDCIPVAWRCDGFTECEDHSDELNCPVCSESQFQCASGQCIDGALRCNGDANCQDKSDEKNCEVLCLIDQFRCANGQCIGKHKKCDHNVDCSDKSDELDCYPTEEPAPQATNTVGSVIGVIVTIFVSGTVYFICQRMLCPRMKGDGETMTNDYVVHGPASVPLGYVPHPSSLSGSLPGMSRGKSMISSLSIMGGSSGPPYDRAHVTGASSSSSSSTKGTYFPAILNPPPSPATERSHYTMEFGYSSNSPSTHRSYSYRPYSYRHFAPPTTPCSTDVCDSDYAPSRRMTSVATAKGYTSDLNYDSEPVPPPPTPRSQYLSAEENYESCPPSPYTERSYSHHLYPPPPSPCTDSS | no change

— publication PMC10047360
